# In patent publication US20250327097A1, “ORGANISMS PRODUCING LESS CROTONIC ACID” (Global Bioenergies, priority 2021, published 2025):
# Residue numbers refer to the chain shown, from its start. Numbers in names are those of the source.
# B1: I283T-P284D-E286C-N287P-S322T-N388M-C430N-L432F-L434W-S436N-A463G-Y469D (protein)
# chain: MFLKSLREQINLLKRQGDLRIINRPVDSYLEAAAIIRRSTETKAPVPLMTNIKGYPGCSIVGGLAALSSNPEYPLSRVAMSLGLSTTASAQSIVQYLIDGLKKTPYLPVEIDSNSAPCKQNILRGEDASLAHFPIPQVHQHDGNRYVNTWGVFIVESPDGQWCNWSIQRVQYLNDRQMIALVFPSQHISDIWEEWVKIGKPMPYALVQGCEPIVPYIAGLPLLERNVNEAEYIGALYGKGIEVVKCETHDLRVPASSEVVIEGYFAITREGVEGPFGEFAGYTDNCPSLQPILSITAISWQDDPIWPVVAEGKPVDEYHTCTGIGDAAAIQNVLLTANLPVSFVWVPLYSACHLMIVSINRHWRQTHPDLTSEQLTKKVGDVIHQTRMSIKLPKIVVLDDDVDPADTESLLWALATRIHPERKRYFYESNIFPWLNCYSEEERHNRKGKRVIIDALLPENHGGISSFDDAYPDDIKQRVLMHWETDFSHD
# B2: N285M-N287T-S322T-N388M-K394R-C430N-L432F-L434W-S436N-dG462-A470S (protein)
# chain: B1 chain with T283I, D284P, N285M, C286E, P287T, K394R, G463A, D469Y, A470S
# B3: I283T-P284D-N287P-S322T-N388M-C430N-L432F-L434W-S436N-G462P-A463G-Y469D (protein)
# chain: B1 chain with C286E, G462P
# B4: P284E-N287Q-S322T-N388M-K394R-R422H-C430N-L432F-L434W-S436N-dA463 (protein)
# chain: B1 chain with T283I, D284E, C286E, P287Q, K394R, R422H, G463A, D469Y
# B5: I283L-N285M-N287T-S322T-A337T-N388M-K394R-C430N-L432F-L434W-S436N-dG462 (protein)
# chain: B1 chain with T283L, D284P, N285M, C286E, P287T, A337T, K394R, G463A, D469Y
# B6: P284E-N287Q-S322T-N388M-K394R-C430N-L432F-L434W-S436N-dG462-Y469D (protein)
# chain: B1 chain with T283I, D284E, C286E, P287Q, K394R, G463A
# B7: P284E-N287Q-L289H-S322T-N388M-K394R-C430N-L432F-L434W-S436N-dA463 (protein)
# chain: B1 chain with T283I, D284E, C286E, P287Q, L289H, K394R, G463A, D469Y
# B8: N285M-N287T-S322T-N388M-K394R-C430N-L432F-L434W-S436N-dG462-Y469S (protein)
# chain: B1 chain with T283I, D284P, N285M, C286E, P287T, K394R, G463A, D469S
# B9: N285M-N287T-S322T-N388M-K394R-C430N-L432F-L434W-S436N-N460G-dG462 (protein)
# chain: B1 chain with T283I, D284P, N285M, C286E, P287T, K394R, N460G, G463A, D469Y
# B10: I283Q-P284E-N287Q-S322T-N388M-K394R-C430N-L432F-L434W-S436N-dA463 (protein)
# chain: B1 chain with T283Q, D284E, C286E, P287Q, K394R, G463A, D469Y
# B11: P284E-N287Q-L289R-S322T-N388M-K394R-C430N-L432F-L434W-S436N-dA463 (protein)
# chain: B1 chain with T283I, D284E, C286E, P287Q, L289R, K394R, G463A, D469Y
# B12: N388M-K394H-C430S-L432F-L434W-S436N (protein)
# chain: B1 chain with T283I, D284P, C286E, P287N, T322S, K394H, N430S, G463A, D469Y
# B13: S185T-N388M-C430P-L432F-L434W-S436N (protein)
# chain: B1 chain with S185T, T283I, D284P, C286E, P287N, T322S, N430P, G463A, D469Y
# B14: P284E-N287Q-S322T-N388M-K394R-C430N-L432F-L434W-S436N-dA463-Y469E (protein)
# chain: B1 chain with T283I, D284E, C286E, P287Q, K394R, G463A, D469E
# B15: N285M-N287T-S322T-N388M-K394R-C430N-L432F-L434W-S436N-dG462-Y469N (protein)
# chain: B1 chain with T283I, D284P, N285M, C286E, P287T, K394R, G463A, D469N
# B16: N285M-N287T-S322T-N388M-K394R-C430N-L432F-L434W-S436N-dG462-Y469T (protein)
# chain: B1 chain with T283I, D284P, N285M, C286E, P287T, K394R, G463A, D469T
# B17: P284E-N287Q-S322T-N388M-K394R-C430N-L432F-L434W-S436N-dA463-A470T (protein)
# chain: B1 chain with T283I, D284E, C286E, P287Q, K394R, G463A, D469Y, A470T
# B18: P284E-N287Q-S322T-N388M-K394R-C430N-L432F-L434W-S436N-G462R-dA463 (protein)
# chain: B1 chain with T283I, D284E, C286E, P287Q, K394R, G462R, G463A, D469Y
# B19: I283C-P284E-N287Q-S322T-N388M-K394R-C430N-L432F-L434W-S436N-dA463 (protein)
# chain: B1 chain with T283C, D284E, C286E, P287Q, K394R, G463A, D469Y
# B20: P284D-N287Q-S322T-N388M-K394R-C430N-L432F-L434W-S436N-dA463 (protein)
# chain: B1 chain with T283I, C286E, P287Q, K394R, G463A, D469Y
# B21: I283T-P284D-N287P-S322T-N388M-i421aG-C430N-L432F-L434W-S436N-A463G-Y469D (protein)
# chain: B1 chain with C286E
# B22: P284E-N287Q-S322T-N388M-K394R-C430N-L432F-L434W-S436N-dG462-Y469S (protein)
# chain: B1 chain with T283I, D284E, C286E, P287Q, K394R, G463A, D469S
# B23: S185T-N388M-C430S-L432F-L434W-S436N (protein)
# chain: B1 chain with S185T, T283I, D284P, C286E, P287N, T322S, N430S, G463A, D469Y
# B24: N285M-N287T-S322T-N388M-K394R-C430N-L432F-L434W-S436N-dA463-S465I (protein)
# chain: B1 chain with T283I, D284P, N285M, C286E, P287T, K394R, G463A, S465I, D469Y
# B25: N285M-N287T-S322T-N388M-K394R-C430N-L432F-L434W-S436N-dA463-S465V (protein)
# chain: B1 chain with T283I, D284P, N285M, C286E, P287T, K394R, G463A, S465V, D469Y
# B26: I283L-P284E-N287Q-S322T-N388M-K394R-C430N-L432F-L434W-S436N-dA463 (protein)
# chain: B1 chain with T283L, D284E, C286E, P287Q, K394R, G463A, D469Y
# B27: P284E-N287Q-S322T-N388M-K394R-C430N-L432F-L434W-S436N-dA463-Y469T (protein)
# chain: B1 chain with T283I, D284E, C286E, P287Q, K394R, G463A, D469T
# B28: N285M-N287T-S322T-N388M-K394R-C430N-L432F-L434W-S436N-dA463-A470S (protein)
# chain: B1 chain with T283I, D284P, N285M, C286E, P287T, K394R, G463A, D469Y, A470S
# B29: P284E-N287Q-S322T-N388M-K394R-C430N-L432F-L434W-S436N-dA463-S465A (protein)
# chain: B1 chain with T283I, D284E, C286E, P287Q, K394R, G463A, S465A, D469Y
# B30: I283T-P284D-N287P-S322T-N388M-C430N-L432F-L434W-S436N-A463F-Y469D (protein)
# chain: B1 chain with C286E, G463F
# B31: I283F-P284E-N287Q-S322T-N388M-K394R-C430N-L432F-L434W-S436N-dG462 (protein)
# chain: B1 chain with T283F, D284E, C286E, P287Q, K394R, G463A, D469Y
# B32: N285M-N287T-S322T-N388M-K394R-C430N-L432F-L434W-S436N-dG462-A463M (protein)
# chain: B1 chain with T283I, D284P, N285M, C286E, P287T, K394R, G463M, D469Y
# B33: N285M-N287T-S322T-N388M-K394R-C430N-L432F-L434W-S436N-dG462-A463F (protein)
# chain: B1 chain with T283I, D284P, N285M, C286E, P287T, K394R, G463F, D469Y
# B34: N285M-N287T-S322T-N388M-K394R-C430N-L432F-L434W-S436N-dG462-A463V (protein)
# chain: B1 chain with T283I, D284P, N285M, C286E, P287T, K394R, G463V, D469Y
# System: 3-methylcrotonic acid
# Type: biochemical, Yersinia frederiksenii
# Design: key: “+” representing a low increase in activity; “++++” representing a high increase in activity
row,Molecule,Activity relative to WT
1,B1,++++
2,B2,++++
3,B3,++++
4,B4,++++
5,B5,++++
6,B6,++++
7,B7,++++
8,B8,++++
9,B9,++++
10,B10,++++
11,B11,++++
12,B12,+
13,B13,+
14,B14,++++
15,B15,++++
16,B16,++++
17,B17,++++

row,Molecule,Activity relative to WT
1,B18,++++
2,B19,++++
3,B20,++++
4,B21,++++
5,B22,++++
6,B23,+
7,B24,++++
8,B25,++++
9,B26,++++
10,B27,++++
11,B28,++++
12,B29,++++
13,B30,++++
14,B31,++++
15,B32,++++
16,B33,++++
17,B34,++++
